Laboratory results from the supplement of paper PMC12636428.

What follows are sequences tested on Saccharomyces cerevisiae (assay: transcriptional activation domain activity (GFP:mCherry ratio, weighted mean of sorted bins, harmonized to initial dataset scale) (arbitrary fluorescence ratio units); higher = stronger transcriptional activation). Settings: beta-estradiol 1 µM; induction time 4 h.
Outline: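 In diploid yeast carrying a GFP reporter, barcoded protein tiles fused to an estradiol-inducible synthetic transcription factor were integrated at the URA3 locus. Cultures diluted 1:5 into SC with 1 uM beta-estradiol were kept at 30 °C for 4 hours, then sorted by GFP:mCherry ratio into 8 bins before barcode sequencing. Tiles with under 50 reads were excluded. The activation activity reported here is the read-weighted mean of bin median fluorescence, averaged across barcodes and linearly rescaled to the initial dataset.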

Sequence	transcriptional activation domain activity
DRNYKRVARQIGFTIDRKHGDDLRHFPIERARLELIWPLLGFGLSCYLCYGWV	49600
SGSGAEGASGTEHRRRTSTRGRGRGRGRGGRTGRGGRTANDAEGAEGAEADAS	27900
IAYPFFFIHSILLNLYYALLPYAFYLYLYIYIFLSFFSRLTVSSSFIPPLLSP	65000
TPNNLTSFDDCHLIDGLELTYSDLLVLDDFLAFDFLGLDHFIFMVTPPWENVV	81000
IYETVNTITELSCLLPGGPWFPHARELWWYASEPAGVRYVAVLLSPTLRSLRL	69700
EKGKSIWIGRDNLEVNVETLALQWYEDQGFKGIHSETRIITTLFGILFWDIIF	55900
MYECLAECEFLARLYFFLLHCCVYCTIIVYIFFLLVNCYAGVVSRLLELQTLR	41100
MANVRFFVGLQRLFPFLAFHHLLMLCHIIVIILLSILLAGCSSYSSMINVYIL	70400
KADDGGGDEAEKPKKATSKKPKKENDDAMDVDEEAQERPKPKPRPKPKPKAKE	22000
VDDSDDDGDEEGGKNEESITKKGVRLLDYACGTGLVSRVSHIPSIAGASSRSL	46600
NKVLRWALDSHIKKWSLDHLRTIAHLIQVVELHHFWSEKENAVALIRVIFKSL	59700
GDVAATDIGSKGGKKDGKRQKGSAAHVDGEDTSEDKKGAAKTGKRKKGGGAKE	27200
FHFHLHSSISFPFPSLSLPFPFFPTSSSSSSPFLLHLFPFPSLFFPLLLLLLF	56400
QHMAQSAQSVMGLEDHNAYGDPDSASRKRSKVSRACDECRRKKVRPRRPANGV	25800
FLWYMLFLPLIIPRLSCSWLRLLCVQSGIFGEPIFFRLWICSIIYVVGHCWVL	31200
ILLVALPLFSFGFESFLPFGKDSGILYYFWLYSTRVFCPCMGFLWAIFALLPF	59700
VQASMAADYAISQFRFLHKLLLVQGHWSYARISEMILTFFFKNIFWVFPSLWY	56100
VLSDKEKHRVASQHLNGESSPQLVPHSHHQPHSDTDEEDWESIGAASLRNNSL	35500
EESLGAGMAKLNLDSATPSSHKSEPIFIAIDCEAYEEGAHAVTEVGVATLDTR	56000
SFLSLFWLLCLGRFPIITKLFLGLYAVFYYVSRYKIGICFVVSIRWIWKSGNR	45600
NANNANTNANANNNAATTNANANGNGKKGKNNNNNANANANANANAAAAAAAG	18400
MILVQLYIYHHFLNYRCLLHVILFRLKLILPSSSLIFVLGSVESSGNHGTSYD	49200
CMLRFVIWLCSKCVPYRSGVWEEFKFLLDHPRRCFTLLFPSSANWWLFWVLIL	59700
GPSSSSSLSSSAGMPGTFVLNLGRYGGYYVIHMPVGAQRVLGLVLRRWKTLLF	60500
LSLADFAWKLSDGEEKREQCGNVAQILLNTISHRVLRTIIRHLVAVVGVLTPS	60000

Sequence	transcriptional activation domain activity
GRNAGREDNSNNRNRRGDRRGAPREARAGGNTNGQQQQQQKKGGAPKAAAVDP	35600
SLGCTLVYVAHISYLSLLPRFDYSYNMAFNLTLGLTHNFLWLLYSLPSFCAIP	52300
RGGGGGGKRGSRAGSGIAADSKEKGNDGEVKLKDKEKGRSKEKKSGKEGGGAA	35900
MLRVPGSWFGMLFMGLLVSRERLSLLASLLFFVQVIFIRLLVVFWMICGGQIP	31400
MPPAPKSPQARRAGAPKAKGAVRAKSGCYTCRIRRKKCDEQMNPEGSCSTCVR	37400
MLQVVVQCFGISLLYFRSGVYLCIFTVHGLGYLFCVFCVFGFHSVWVGLCFFV	56600
VATADVCMVTHFLILLLLAAITGAVLVSVFAFLCVICPPHLRRRPVFMLNLLA	35400
LLSVCVGKNCTVPSPLNSFDRSFYPIGCTNLSNDIPGYSFLNDAMSEIHTFGD	82000
MYDFFLFLSFLPFPSPSLLCFLILFSFIYLLLFHFYIYIYICLFLSFYIHAFV	10600
MRAKNLTWTTLIYFSTVLWFVGDLVTNNHVRLVGVWSECKLWILWFRVFFVYV	84300
REGHLFSCIYIMYCQILFRKVGWSSVFDCAFHVLLAMSAAGNFLVVGAIRCKC	37300
LGQLLLLLLLLLLLLLLLLLLLLLLLLLLLLLLRRRRRRWWWWRRLLILRIRR	73200
MPLSPPLYFIVFLYLQFQLYAYFICYFYILLSFYSSTHPVLSFYPLYYPFYLL	61300
NGLENAASVITILDKSSNGTFINGEKIGKGQQRLLKDGNEVSFGVCVRSTENN	24500
ASDSAPEPVKKKRGRPPKAQSDSEVVEKRPKKKPGPKPKPKAKAARKRKAPVS	18900
PRLFPIASHLFFSLPHAKCCYPYLLLLLFPLLPLPFSLLVFCNLIFFFFFLFF	41300
GRWSYLRTSEMILTFFYKNIMWTLVLFWYQLMCSFTGTMMFDYSYITLYNLVF	63400
IFASALLVACFIHVKGVLDFSLYILKITCRADLDVDEWRSHFGMGEYVVYVGM	61400
AKLESCNPRAYLDPSTAPIATMARGNQRDKAREANLKKQAAQKKGNSMSGTEM	44300
KSVLCDLVFTMFADLRDPSVSRRFATVDDLELWFSTTLIKALRHLVALFTEYY	50400
FLQNSSDSVDIRLALLLTPLENTKGVSHVDQLNKPTHTVVVGIVHLCNPKSRA	51600
GAVAADVEDEDADDALEEPAKGKKRKSKVEEDESEAEKPAKKGRGRKSTETNG	42600
FSFGLYLLYHSPYWMNVAQLWVNYPHIEFMPGIKKYYLIQMSYWLQQMYFIQI	48700
ESAKDKENAKGRKEAEKKKNKEEKERVKKESRERERESRRSAEGRKRPALASL	25400
MVQNWEFFVFFFLPFNSFFSFFLPFCEVYMCAVCGLWCGSPGKLLGLFYFWFV	36600

Sequence	transcriptional activation domain activity
HVFPILLRLVGGYALLRKLIDSIEEAYLAYHMVASQTYFMSTSLTFCAILARM	71200
FTSPLPFALVPLFMYGDAQNWCWFTKQNTLYGIYLWFMWLWILFAFNLVCLFF	56600
RSHAGRGRSRSREKHEHHRSHHHREKRRRESEIERRDSKRAASPKSKPSENIH	27100
HPNDAGDENDGEGESAAPAKEKEPAGTAATPASYQLQSIACHKGTSIHAGHYV	33100
RRLAGLLRHLQHRTREMGGHIVLIADPTQVCFVLLRPIIKKPALPAELVRKFW	44800
MGKRRRLLAKAQPKSGGSTSAKHHPQQGTGKAVAARGQKPQKQQGAPRNGSNG	21900
FDTRGAIYCSRPRMVMMCELMGWDAAFVLMPYTPRWRRHRRLFHQHFNEAVAN	80200
KQYCVRPNSGRIEGGGEVEVQVLLQAMKEDPPLDAKCKDKFLVQSVAVAADRE	46900
TASSGTRATTTSSAPRSRRTHTTPLRAAQARAPRCRTARARTSCGSTPTARRS	23800
TDDYFQTVLMSGLLRVLKDPASSGQHHTVIEAIMAIFKTWIMLAFAAVTRSSV	56900
DSDGDEEPGKKRQKTALSCGECKRRKIKCDRKVPCVSCIKRGEPEKCNWEEAR	30900
KDNATTAAVAAASSEKDDEKKAKEENKPDDKKTEEKKAEEKKSDDTAKDDASK	34300
FLKIYLLNPLHMTRFTDLLHQGFILNRVFQPYESHLQYLLQWMCDYNLYGCAY	39200
ADRTSRRRDDRSRSRDRGSSRRDSDRHRHHSRRSSRAERTKKEESQGNGTVPD	17800
VEFLFPIYATVAFTTLGCISMFALPYAVLTILPNFYLNCPYGTPLSGVTWRLS	61600
IRLLISKHWLPVLFSFRGFMELTTTVPFLLSTYIPNGRYLYVPYFIRSWVLLL	72800
LIVMRDRVEIIMLLWPIINIAFVILVGYDSDVTKSIRRLRQKYWSSLSVMAST	68600
MSTAAVNEVTETLAATAISNPTNGAAANEATAASADEGRRLYIGNLAYATTEG	36000
GDDEETQGNATKNILDDWEGAPESFVCQEQRQTGGRVAAKTQRLLSFSIHDEL	23100
LLFQSGVLRGYGGLLGFWIYLLLSSSFLLHLFYCCYIVLYLFVFVSWLLACLL	51700
KFCAITLAGTWGKVVLYSLAMTRVVSYCYNIYYMDSVFSRTIRPGIGICFTSL	67100
IPSSQSRDIANDYDRGSTDNNLVTTTSTSSIFHDEDLTFFDRIPLNSNNNYYF	102000
QADYMCQYKGGLIGKHFKTLSQVMAFAVHGLVPPDVLEAWLILGRLTVLLWHT	49400
YIAPCGTWTPYMNLFLGSTVCIFIGFDVFAPFSYRGLITNYFGLLWFCFMFLF	78400
